In PMC8141531 one finds Kd data, which are given here for one substance.

Holding throughout (test): SPR
Test [1] concerns the target heterodimeric IL-2Rαβ (human IL-2Rα-Fc chimera and human IL-2Rβ-Fc chimera captured together) (human) (UniProt P01589).
The target of test [2] is human IL-2Rα-Fc chimera (human) (UniProt P01589).
Test [3] addresses human IL-2Rβ-Fc chimera (human) (UniProt P14784).
Sequence of UniProt P14784 (P14784 27-240, change not shown): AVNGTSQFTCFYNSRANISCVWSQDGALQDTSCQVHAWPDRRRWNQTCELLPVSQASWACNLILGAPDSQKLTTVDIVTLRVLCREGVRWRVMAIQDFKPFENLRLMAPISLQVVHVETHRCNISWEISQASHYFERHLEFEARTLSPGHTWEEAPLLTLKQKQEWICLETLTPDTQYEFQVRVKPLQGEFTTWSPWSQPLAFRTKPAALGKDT

For the substance “NKTR-358, a PEGylated form of rhIL-2 (aldesleukin sequence) (from UniProt P60568 21-153) (ligand)”, the dissociation constant (Kd) in test [1] stood at 1.7 µM; in test [2], 7.3 µM; in test [3], 88 µM.
